Source: the supplement of paper PMC10899765

Legend:
Conditions in all cases: 20 nM; 72 h
MCF10A [1] = experiment: percent viability (nuclei count relative to siNT); higher = more viable cells
Experimental: (§1)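 After 72 h, cells were fixed and stained with Hoechst and anti-fibrillarin, and nucleoli per nucleus were counted with CellProfiler. Values are plate-adjusted percent effect for the one-nucleolus and 5+ nucleoli phenotypes, normalised to siNT (0%) and to the positive controls siNOL11 or siKIF11 (100%), as the mean of biological triplicates. Percent viability is the nuclei count relative to siNT.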

MCF10A [2] = experiment: 5+ nucleoli phenotype percent effect (relative to siNT 0% and siKIF11 100%); higher = more cells with five or more nucleoli
Experimental: as §1

MCF10A [3] = experiment: one-nucleolus phenotype percent effect (relative to siNT 0% and siNOL11 100%); higher = more cells with one nucleolus (ribosome biogenesis inhibition)
Experimental: as §1

## AAACUCUACUUGUCCUUCUGAGU [hsa-miR-618]
MCF10A [1]
  percent viability: 46.5%
MCF10A [2]
  5+ nucleoli phenotype percent effect: -16.4%
MCF10A [3]
  one-nucleolus phenotype percent effect: 10.9%

## UGGGUGGUCUGGAGAUUUGUGC [hsa-miR-1293]
MCF10A [1]
  percent viability: 7.23%
MCF10A [2]
  5+ nucleoli phenotype percent effect: -9.27%
MCF10A [3]
  one-nucleolus phenotype percent effect: -46.3%

## GAAGUUGCCCAUGUUAUUUUCG [hsa-miR-495-5p]
MCF10A [1]
  percent viability: 42.2%
MCF10A [2]
  5+ nucleoli phenotype percent effect: -1.1%
MCF10A [3]
  one-nucleolus phenotype percent effect: 1.67%

## AUAUACCUGUUCGGUCUCUUUA [hsa-miR-3144-3p]
MCF10A [1]
  percent viability: 30%
MCF10A [2]
  5+ nucleoli phenotype percent effect: -12.6%
MCF10A [3]
  one-nucleolus phenotype percent effect: -10.5%

## CAAGUCACUAGUGGUUCCGUU [hsa-miR-224-5p]
MCF10A [1]
  percent viability: 38.7%
MCF10A [2]
  5+ nucleoli phenotype percent effect: -41%
MCF10A [3]
  one-nucleolus phenotype percent effect: 15.4%

## GAAGGCGCUUCCCUUUAGAGCG [hsa-miR-525-3p]
MCF10A [1]
  percent viability: 42.5%
MCF10A [2]
  5+ nucleoli phenotype percent effect: -16.5%
MCF10A [3]
  one-nucleolus phenotype percent effect: 37.2%

## UAGCAGCGGGAACAGUUCUGCAG [hsa-miR-503-5p]
MCF10A [1]
  percent viability: 29.1%
MCF10A [2]
  5+ nucleoli phenotype percent effect: -16.1%
MCF10A [3]
  one-nucleolus phenotype percent effect: 14.4%

## CAGGGCUCAGGGAUUGGAUGGAGG [hsa-miR-5088-5p]
MCF10A [1]
  percent viability: 86.9%
MCF10A [2]
  5+ nucleoli phenotype percent effect: 15.2%
MCF10A [3]
  one-nucleolus phenotype percent effect: -17.9%

## AGGGCCAGAGGAGCCUGGAGUGG [hsa-miR-4726-5p]
MCF10A [1]
  percent viability: 50.1%
MCF10A [2]
  5+ nucleoli phenotype percent effect: 18.8%
MCF10A [3]
  one-nucleolus phenotype percent effect: 5.63%

## UCGGCCUGACCACCCACCCCAC [hsa-miR-1234-3p]
MCF10A [1]
  percent viability: 75.7%
MCF10A [2]
  5+ nucleoli phenotype percent effect: 54.9%
MCF10A [3]
  one-nucleolus phenotype percent effect: -20.1%

## UUGCCACACUGCAACACCUUACA [hsa-miR-3064-3p]
MCF10A [1]
  percent viability: 39.1%
MCF10A [2]
  5+ nucleoli phenotype percent effect: -31.2%
MCF10A [3]
  one-nucleolus phenotype percent effect: 8.14%

## ACGUUGGCUCUGGUGGUG [hsa-miR-1306-3p]
MCF10A [1]
  percent viability: 18.4%
MCF10A [2]
  5+ nucleoli phenotype percent effect: -4.59%
MCF10A [3]
  one-nucleolus phenotype percent effect: 38.2%

## GCUAAGGAAGUCCUGUGCUCAG [hsa-miR-4521]
MCF10A [1]
  percent viability: 83.7%
MCF10A [2]
  5+ nucleoli phenotype percent effect: 34.9%
MCF10A [3]
  one-nucleolus phenotype percent effect: -19.3%

## CAAAGCGCUUCUCUUUAGAGUGU [hsa-miR-518c-3p]
MCF10A [1]
  percent viability: 44.9%
MCF10A [2]
  5+ nucleoli phenotype percent effect: -26.1%
MCF10A [3]
  one-nucleolus phenotype percent effect: 37.7%

## UAAUCUCAGCUGGCAACUGUGA [hsa-miR-216a-5p]
MCF10A [1]
  percent viability: 67.7%
MCF10A [2]
  5+ nucleoli phenotype percent effect: -8.01%
MCF10A [3]
  one-nucleolus phenotype percent effect: 6.23%

## UAGGGGCAGCAGAGGACCUGGG [hsa-miR-4688]
MCF10A [1]
  percent viability: 17.5%
MCF10A [2]
  5+ nucleoli phenotype percent effect: 8.84%
MCF10A [3]
  one-nucleolus phenotype percent effect: 23.4%

## UUGGACUUUUUCAGAUUUGGGGAU [hsa-miR-5009-5p]
MCF10A [1]
  percent viability: 43.5%
MCF10A [2]
  5+ nucleoli phenotype percent effect: -5.29%
MCF10A [3]
  one-nucleolus phenotype percent effect: 19.8%

## UCUGUGCUACUGGAUGAAGAGU [hsa-miR-7157-3p]
MCF10A [1]
  percent viability: 92.3%
MCF10A [2]
  5+ nucleoli phenotype percent effect: 36.4%
MCF10A [3]
  one-nucleolus phenotype percent effect: -22.7%

## UGGAAGGAGGUUGCCGGACGCU [hsa-miR-4533]
MCF10A [1]
  percent viability: 46.4%
MCF10A [2]
  5+ nucleoli phenotype percent effect: -14.3%
MCF10A [3]
  one-nucleolus phenotype percent effect: 9.34%

## AGGGAGGGUGUGGUAUGGAUGU [hsa-miR-6883-5p]
MCF10A [1]
  percent viability: 42%
MCF10A [2]
  5+ nucleoli phenotype percent effect: -4.87%
MCF10A [3]
  one-nucleolus phenotype percent effect: 8.82%

## GGCUGGUCAGAUGGGAGUG [hsa-miR-6131]
MCF10A [1]
  percent viability: 71%
MCF10A [2]
  5+ nucleoli phenotype percent effect: 1.34%
MCF10A [3]
  one-nucleolus phenotype percent effect: -3.05%

## UUGUGUGAGUACAGAGAGCAUC [hsa-miR-6818-5p]
MCF10A [1]
  percent viability: 17.1%
MCF10A [2]
  5+ nucleoli phenotype percent effect: -31.6%
MCF10A [3]
  one-nucleolus phenotype percent effect: 66.1%

## CCCAGUGUUUAGACUAUCUGUUC [hsa-miR-199b-5p]
MCF10A [1]
  percent viability: 170%
MCF10A [2]
  5+ nucleoli phenotype percent effect: 26.5%
MCF10A [3]
  one-nucleolus phenotype percent effect: -14.4%

## GUUCAAAUCCAGAUCUAUAAC [hsa-miR-607]
MCF10A [1]
  percent viability: 111%
MCF10A [2]
  5+ nucleoli phenotype percent effect: 34.2%
MCF10A [3]
  one-nucleolus phenotype percent effect: -23.2%

## UGUGCGCAGGGAGACCUCUCCC [hsa-miR-933]
MCF10A [1]
  percent viability: 78.3%
MCF10A [2]
  5+ nucleoli phenotype percent effect: -8.45%
MCF10A [3]
  one-nucleolus phenotype percent effect: 4.65%

## CUACCCUCGGUCUGCUUACCACA [hsa-miR-7848-3p]
MCF10A [1]
  percent viability: 41.7%
MCF10A [2]
  5+ nucleoli phenotype percent effect: -35.7%
MCF10A [3]
  one-nucleolus phenotype percent effect: 25.5%

## CUAGUGCUCUCCGUUACAAGUA [hsa-miR-4473]
MCF10A [1]
  percent viability: 37.8%
MCF10A [2]
  5+ nucleoli phenotype percent effect: 18%
MCF10A [3]
  one-nucleolus phenotype percent effect: -11.7%

## AAAUAUGAUGAAACUCACAGCUGAG [hsa-miR-4517]
MCF10A [1]
  percent viability: 24%
MCF10A [2]
  5+ nucleoli phenotype percent effect: 12.3%
MCF10A [3]
  one-nucleolus phenotype percent effect: 0.779%

## UGUUUUGAUAACAGUAAUGU [hsa-miR-2052]
MCF10A [1]
  percent viability: 144%
MCF10A [2]
  5+ nucleoli phenotype percent effect: 5.44%
MCF10A [3]
  one-nucleolus phenotype percent effect: 0.685%

## AGGAAGCCCUGGAGGGGCUGGAG [hsa-miR-671-5p]
MCF10A [1]
  percent viability: 45.3%
MCF10A [2]
  5+ nucleoli phenotype percent effect: -27.7%
MCF10A [3]
  one-nucleolus phenotype percent effect: 58.7%

## CGCCUCUUCAGCGCUGUCUUCC [hsa-miR-2682-3p]
MCF10A [1]
  percent viability: 75.9%
MCF10A [2]
  5+ nucleoli phenotype percent effect: 24%
MCF10A [3]
  one-nucleolus phenotype percent effect: -7.1%

## AAUAUAACACAGAUGGCCUGU [hsa-miR-410]
MCF10A [1]
  percent viability: 164%
MCF10A [2]
  5+ nucleoli phenotype percent effect: 27.3%
MCF10A [3]
  one-nucleolus phenotype percent effect: -9.74%

## CACAGGACUGACUCCUCACCCCAGUG [hsa-miR-4700-3p]
MCF10A [1]
  percent viability: 83.5%
MCF10A [2]
  5+ nucleoli phenotype percent effect: 43.2%
MCF10A [3]
  one-nucleolus phenotype percent effect: -16%

## CCCUGCUGCCUUCACCUGCCAG [hsa-miR-6893-3p]
MCF10A [1]
  percent viability: 50.3%
MCF10A [2]
  5+ nucleoli phenotype percent effect: -2.09%
MCF10A [3]
  one-nucleolus phenotype percent effect: -5.77%

## UAGGCACACUUAAAGUUAUAGC [hsa-miR-5582-5p]
MCF10A [1]
  percent viability: 13.8%
MCF10A [2]
  5+ nucleoli phenotype percent effect: -17.3%
MCF10A [3]
  one-nucleolus phenotype percent effect: 37.6%

## CGGGCUGUCCGGAGGGGUCGGCU [hsa-miR-4741]
MCF10A [1]
  percent viability: 65.1%
MCF10A [2]
  5+ nucleoli phenotype percent effect: 42.5%
MCF10A [3]
  one-nucleolus phenotype percent effect: -21.4%

## CUGGAUGGCUCCUCCAUGUCU [hsa-miR-432-3p]
MCF10A [1]
  percent viability: 16.2%
MCF10A [2]
  5+ nucleoli phenotype percent effect: -33.6%
MCF10A [3]
  one-nucleolus phenotype percent effect: 62%

## UAGGAUUACAAGUGUCGGCCAC [hsa-miR-3159]
MCF10A [1]
  percent viability: 44.9%
MCF10A [2]
  5+ nucleoli phenotype percent effect: -4.52%
MCF10A [3]
  one-nucleolus phenotype percent effect: -5%

## ACCCCUGCCACUCACUGGCC [hsa-miR-6801-3p]
MCF10A [1]
  percent viability: 62%
MCF10A [2]
  5+ nucleoli phenotype percent effect: 1.82%
MCF10A [3]
  one-nucleolus phenotype percent effect: -4.08%

## UGUGACAAUAGAGAUGAACAUG [hsa-miR-4504]
MCF10A [1]
  percent viability: 39.9%
MCF10A [2]
  5+ nucleoli phenotype percent effect: -15.9%
MCF10A [3]
  one-nucleolus phenotype percent effect: 30.4%

## UGGGCUAAGGGAGAUGAUUGGGUA [hsa-miR-664b-5p]
MCF10A [1]
  percent viability: 32.1%
MCF10A [2]
  5+ nucleoli phenotype percent effect: 2.04%
MCF10A [3]
  one-nucleolus phenotype percent effect: 5.55%

## UGUAAACAUCCCCGACUGGAAG [hsa-miR-30d-5p]
MCF10A [1]
  percent viability: 62.7%
MCF10A [2]
  5+ nucleoli phenotype percent effect: 30.3%
MCF10A [3]
  one-nucleolus phenotype percent effect: 0.554%

## AGGGGGAAAGUUCUAUAGUCC [hsa-miR-625-5p]
MCF10A [1]
  percent viability: 12.6%
MCF10A [2]
  5+ nucleoli phenotype percent effect: -16.9%
MCF10A [3]
  one-nucleolus phenotype percent effect: 21.3%

## UGCCUGGGUCUCUGGCCUGCGCGU [hsa-miR-661]
MCF10A [1]
  percent viability: 23%
MCF10A [2]
  5+ nucleoli phenotype percent effect: -18.5%
MCF10A [3]
  one-nucleolus phenotype percent effect: 23.1%

## UUGUGCUUGAUCUAACCAUGU [hsa-miR-218-5p]
MCF10A [1]
  percent viability: 151%
MCF10A [2]
  5+ nucleoli phenotype percent effect: 35.8%
MCF10A [3]
  one-nucleolus phenotype percent effect: -8.63%

## UCACAAGGUAUUGACUGGCGUA [hsa-miR-4457]
MCF10A [1]
  percent viability: 47.9%
MCF10A [2]
  5+ nucleoli phenotype percent effect: -15.7%
MCF10A [3]
  one-nucleolus phenotype percent effect: 1.5%

## CUGGGAGGUGUGAUAUCGUGGU [hsa-miR-3689a-3p]
MCF10A [1]
  percent viability: 12.5%
MCF10A [2]
  5+ nucleoli phenotype percent effect: 27.1%
MCF10A [3]
  one-nucleolus phenotype percent effect: 27.5%

## GCAAAGCACACGGCCUGCAGAGA [hsa-miR-330-3p]
MCF10A [1]
  percent viability: 83.2%
MCF10A [2]
  5+ nucleoli phenotype percent effect: 16.5%
MCF10A [3]
  one-nucleolus phenotype percent effect: -7.99%
